The results in this text go back to the supplement of paper PMC10567573.

B1: RHOBTB2 (parent)
chain: LYTGELDENERDLMHIAHIAELLE
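Further: lentivirally expressed fusions sorted by FACS into six bins by GFP to DsRed ratio, PSI derived from sequencing read proportions per bin multiplied by bin number.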

In the series the parent is B1. The series is described as follows: protein stability index of a GFP-peptide fusion (GPS, HEK-293T) (PSI 1-6); higher = more stable. The following applies: c terminus: a fixed tail appended.
Regarding LYTEELDENERDLMHIAHIAELLE, the protein stability index was found to be 2.32.

In the case of LYTDELDENERDLMHIAHIAELLE, the protein stability index was 2.53.

As to LYTSELDENERDLMHIAHIAELLE, the protein stability index amounted to 2.42.

As to LYTIELDENERDLMHIAHIAELLE, the protein stability index worked out at 2.56.

As for LYTQELDENERDLMHIAHIAELLE, the protein stability index turned out to be 2.7.

As to LYTVELDENERDLMHIAHIAELLE, the protein stability index stood at 1.44.

Regarding LYTPELDENERDLMHIAHIAELLE, the protein stability index is 2.46.

Turning to LYTLELDENERDLMHIAHIAELLE, the protein stability index came to 1.76.

On to LYTMELDENERDLMHIAHIAELLE, for which the protein stability index was found to be 1.77.

Take LYTYELDENERDLMHIAHIAELLE: the protein stability index was 2.2.

Regarding LYTHELDENERDLMHIAHIAELLE, the protein stability index turned out to be 1.99.

Turning to LYTRELDENERDLMHIAHIAELLE, the protein stability index turned out to be 2.29.

LYTAELDENERDLMHIAHIAELLE: the protein stability index worked out at 2.31.

For the variant LYTFELDENERDLMHIAHIAELLE, the protein stability index turned out to be 1.93.

As for LYTTELDENERDLMHIAHIAELLE, the protein stability index came to 2.25.

Consider LYTCELDENERDLMHIAHIAELLE, for which the protein stability index was 1.87.

Consider LYTNELDENERDLMHIAHIAELLE, for which the protein stability index worked out at 2.05.

Turning to LYTWELDENERDLMHIAHIAELLE, the protein stability index was 1.5.

Regarding LYTKELDENERDLMHIAHIAELLE, the protein stability index is 1.89.

With LYKGELDENERDLMHIAHIAELLE, the protein stability index came to 2.16.

On to LYSGELDENERDLMHIAHIAELLE, for which the protein stability index came out at 2.61.

As to LYNGELDENERDLMHIAHIAELLE, the protein stability index was found to be 2.25.

As for LYLGELDENERDLMHIAHIAELLE, the protein stability index is 1.94.

With LYQGELDENERDLMHIAHIAELLE, the protein stability index was 2.58.

As for LYRGELDENERDLMHIAHIAELLE, the protein stability index worked out at 1.98.

For LYMGELDENERDLMHIAHIAELLE, the protein stability index worked out at 2.23.

Regarding LYWGELDENERDLMHIAHIAELLE, the protein stability index came out at 1.54.

As for LYVGELDENERDLMHIAHIAELLE, the protein stability index amounted to 2.21.

On to LYYGELDENERDLMHIAHIAELLE, for which the protein stability index came out at 2.08.

For the variant LYPGELDENERDLMHIAHIAELLE, the protein stability index is 2.14.

On to LYIGELDENERDLMHIAHIAELLE, for which the protein stability index was determined as 2.15.

For the variant LYTGEWDENERDLMHIAHIAELLE, the protein stability index stood at 2.44.

Consider LYTGERDENERDLMHIAHIAELLE, for which the protein stability index is 2.79.

As for LYTGEHDENERDLMHIAHIAELLE, the protein stability index was 2.96.

Take LYTGEIDENERDLMHIAHIAELLE: the protein stability index was determined as 2.64.

LYTGEDDENERDLMHIAHIAELLE: the protein stability index was 3.27.

LYTGEPDENERDLMHIAHIAELLE: the protein stability index was determined as 2.95.

For the variant LYTGENDENERDLMHIAHIAELLE, the protein stability index turned out to be 3.49.

Take LYTGEGDENERDLMHIAHIAELLE: the protein stability index was determined as 3.11.

For the variant LYTGEYDENERDLMHIAHIAELLE, the protein stability index was found to be 2.6.

For the variant LYTGEVDENERDLMHIAHIAELLE, the protein stability index worked out at 2.38.

Regarding LYTGEFDENERDLMHIAHIAELLE, the protein stability index was determined as 2.46.

Turning to LYTGETDENERDLMHIAHIAELLE, the protein stability index stood at 3.57.

With LYTGEQDENERDLMHIAHIAELLE, the protein stability index was 3.86.

Take LYTGEKDENERDLMHIAHIAELLE: the protein stability index came out at 3.31.

Consider LYTGEADENERDLMHIAHIAELLE, for which the protein stability index came to 3.38.

For the variant LYTGEEDENERDLMHIAHIAELLE, the protein stability index turned out to be 3.4.

LYTGECDENERDLMHIAHIAELLE: the protein stability index came out at 2.91.

Consider LYTGEMDENERDLMHIAHIAELLE, for which the protein stability index worked out at 2.56.

Consider LYTGESDENERDLMHIAHIAELLE, for which the protein stability index was 2.81.

As for LYTGNLDENERDLMHIAHIAELLE, the protein stability index worked out at 2.23.

Take LYTGRLDENERDLMHIAHIAELLE: the protein stability index came out at 3.45.

On to LYTGFLDENERDLMHIAHIAELLE, for which the protein stability index was 2.71.

Take LYTGILDENERDLMHIAHIAELLE: the protein stability index came to 1.65.

With LYTGQLDENERDLMHIAHIAELLE, the protein stability index was determined as 2.22.

Turning to LYTGMLDENERDLMHIAHIAELLE, the protein stability index stood at 2.1.

Take LYTGGLDENERDLMHIAHIAELLE: the protein stability index worked out at 2.34.

For the variant LYTGHLDENERDLMHIAHIAELLE, the protein stability index stood at 2.24.

Take LYTGPLDENERDLMHIAHIAELLE: the protein stability index is 2.52.

LYTGWLDENERDLMHIAHIAELLE: the protein stability index came to 2.3.

In the case of LYTGLLDENERDLMHIAHIAELLE, the protein stability index was 2.02.

As to LYTGVLDENERDLMHIAHIAELLE, the protein stability index worked out at 1.81.

Turning to LYTGSLDENERDLMHIAHIAELLE, the protein stability index is 2.54.

For the variant LYTGDLDENERDLMHIAHIAELLE, the protein stability index is 2.63.

Take LYTGKLDENERDLMHIAHIAELLE: the protein stability index worked out at 2.75.

For LYTGALDENERDLMHIAHIAELLE, the protein stability index came to 2.12.

Turning to LYTGCLDENERDLMHIAHIAELLE, the protein stability index stood at 1.67.

LYTGYLDENERDLMHIAHIAELLE: the protein stability index was found to be 1.9.

Regarding LYTGTLDENERDLMHIAHIAELLE, the protein stability index was determined as 2.75.

As for LYTGELDGNERDLMHIAHIAELLE, the protein stability index is 1.91.

In the case of LYTGELDFNERDLMHIAHIAELLE, the protein stability index came to 1.96.

Regarding LYTGELDCNERDLMHIAHIAELLE, the protein stability index amounted to 2.05.

With LYTGELDANERDLMHIAHIAELLE, the protein stability index turned out to be 2.08.

For LYTGELDDNERDLMHIAHIAELLE, the protein stability index is 3.23.

On to LYTGELDHNERDLMHIAHIAELLE, for which the protein stability index turned out to be 2.39.

With LYTGELCENERDLMHIAHIAELLE, the protein stability index is 1.88.

For the variant LYTGELKENERDLMHIAHIAELLE, the protein stability index was 2.33.

Consider LYTGELGENERDLMHIAHIAELLE, for which the protein stability index was found to be 2.15.

As to LYTGELNENERDLMHIAHIAELLE, the protein stability index came to 2.17.

With LYTGELIENERDLMHIAHIAELLE, the protein stability index stood at 1.77.

For the variant LYTGELAENERDLMHIAHIAELLE, the protein stability index was 2.48.

With LYTGELSENERDLMHIAHIAELLE, the protein stability index amounted to 2.48.

LYTGELLENERDLMHIAHIAELLE: the protein stability index came to 3.31.

Regarding LYTGELEENERDLMHIAHIAELLE, the protein stability index turned out to be 2.41.

With LYTGELFENERDLMHIAHIAELLE, the protein stability index worked out at 2.3.

On to LYTGELVENERDLMHIAHIAELLE, for which the protein stability index turned out to be 2.46.

Regarding LYTGELHENERDLMHIAHIAELLE, the protein stability index worked out at 1.62.

As to LYTGELPENERDLMHIAHIAELLE, the protein stability index turned out to be 2.52.

For the variant LYTGELMENERDLMHIAHIAELLE, the protein stability index came out at 1.97.

Turning to LYTGELRENERDLMHIAHIAELLE, the protein stability index was found to be 2.25.

On to LYTGELWENERDLMHIAHIAELLE, for which the protein stability index worked out at 1.64.

Take LYTGELQENERDLMHIAHIAELLE: the protein stability index turned out to be 1.94.

As to LYTGELYENERDLMHIAHIAELLE, the protein stability index came out at 1.89.

For the variant LYTGELTENERDLMHIAHIAELLE, the protein stability index came to 2.16.
